Patent publication US20100311648A1 (AstraZeneca / MedImmune, published 2010)
Read-outs that look alike come from different tables or passages of the source. Positions of bridges follow the written chain, without caps; N, C: chain ends. Non-standard residues stand in square brackets, D forms with d. dPhe(2-CF3) = N[C@H](Cc1ccccc1C(F)(F)F)C(=O)O; Orn = NCCC[C@H](N)C(=O)O; Dab = NCC[C@H](N)C(=O)O

Tests used:
[1] = biological target: T1, human melanocortin-4 receptor (human, UniProt P32245 1-332); assay: cell-based or functional assay
T1 sequence (P32245 whole entry): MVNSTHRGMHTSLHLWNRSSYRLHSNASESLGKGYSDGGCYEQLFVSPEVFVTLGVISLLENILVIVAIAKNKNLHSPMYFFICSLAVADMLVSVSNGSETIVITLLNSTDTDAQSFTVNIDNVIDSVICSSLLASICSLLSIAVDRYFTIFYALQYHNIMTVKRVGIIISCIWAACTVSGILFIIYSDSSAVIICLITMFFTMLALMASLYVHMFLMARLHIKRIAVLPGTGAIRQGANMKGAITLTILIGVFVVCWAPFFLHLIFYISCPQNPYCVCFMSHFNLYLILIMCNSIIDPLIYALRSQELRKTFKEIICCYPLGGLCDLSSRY

[2] = biological target: T1, human melanocortin-4 receptor; assay: Ki of Table 1; receptor not given, taken as hMC4-R
[3] = biological target: T1, human melanocortin-4 receptor; assay: cell-based or functional assay; remark: listed apart in the source
[4] = biological target: T1, human melanocortin-4 receptor; assay: [I125]-NDP-α-MSH competition, hMC4-R HEK-293 membranes
melanocortin-1 receptor = biological target: T2, melanocortin-1 receptor (mouse (B-16 melanoma cells); in some …, UniProt Q01727 1-315); assay: [I125]-NDP-α-MSH competition, MC1-R membranes
T2 construct: whole, on cells; membrane homogenates; also called MC1-R; mouse B16 MC1-R
T2 sequence (Q01727 whole entry): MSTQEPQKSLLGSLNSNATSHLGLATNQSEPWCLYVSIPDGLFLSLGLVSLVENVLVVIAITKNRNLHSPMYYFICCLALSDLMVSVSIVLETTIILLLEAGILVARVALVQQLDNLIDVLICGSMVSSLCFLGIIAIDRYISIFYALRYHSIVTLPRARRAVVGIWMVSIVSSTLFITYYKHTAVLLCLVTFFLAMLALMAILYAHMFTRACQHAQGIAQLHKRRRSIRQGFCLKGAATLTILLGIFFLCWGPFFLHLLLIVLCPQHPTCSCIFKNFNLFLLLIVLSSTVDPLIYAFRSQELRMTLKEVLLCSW
Procedure: A competitive inhibition binding assay was performed for exemplified peptides according to the invention using membrane homogenates prepared from HEK-293 cells that express recombinant hMC4-R, hMC3-R, or hMC5-R, and from B-16 mouse melanoma cells (containing endogenous MC1-R). In some instances, HEK-293 cells that express recombinant hMC1-R were employed. Assays were performed in 96 well GF/B Millipore multiscreen filtration plates (MAFB NOB10) pre-coated with 0.5% bovine serum albumin (Fraction V). […] After incubation for 60 minutes at 37° C., the assay mixture was filtered and the membranes washed three times with ice-cold buffer. Filters were dried and counted in a gamma counter for bound radioactivity. […] Each assay was conducted in triplicate and the actual mean values are described, with results less than 0% reported as 0%. Ki values for test peptides of the present invention were determined using Graph-Pad Prism® curve-fitting software.

Binder	EC50, cAMP, 0.1 ng/mL Doxycycline [1] [nM]	Ki [2] [nM]	EC50, cAMP, 0.1 ng/mL Doxycycline [3] [nM]	EC50, cAMP, 10 ng/mL Doxycycline [3] [nM]	Intrinsic Activity, cAMP, 0.1 ng/mL Doxycycline [3] [%]	Intrinsic Activity, cAMP, 10 ng/mL Doxycycline [3] [%]	Ki [4] [nM]	Ki (melanocortin-1 receptor) [nM]
Ac-RE[Dab][dF]RW[Orn]-NH2 (lactam 2-7) [Ac-Arg-cyclo(Glu-Dab-D-Phe-Arg-Trp-Orn)-NH2]	0.33	0.65						
Ac-REQ[dPhe(2-CF3)]RW[Orn]-NH2 (lactam 2-7, also called No. 114) [Ac-Arg-cyclo(Glu-Gln-D-Phe(2-CF3)-Arg-Trp-Orn)-NH2]			1	0.185	73	117	8	93
